One substance from publication doi:10.1101/586255v1 can be followed below.

In this data set the test system is N[C@@H](CO)C(=O)O. Briefly: purified protein, by the assay type. The settings on record: pH 7.6; 37.0 °C.

As a reminder, the Km is the substrate concentration at which the rate is half of its maximum. HsSerRS (Homo sapiens): the Km is 1083 ± 156 µM.
